Measurements published in patent publication US20190111080A1 (PRECIGEN, published 2019).

Target: T1, recombinant EGFRvIII/Fc protein (UniProt P00533 25-645)
T1 construct: Staining reagent for flow cytometry; not shown: Fc part not described
Experiment: flow cytometry, CAR T cells stained with recombinant EGFRvIII/Fc, day 1
Protocol: Briefly, EGFRvIII-specific CAR vectors were introduced into via electroporation, using a Sleeping Beauty-based transposon system to mediate genomic integration of the transposons. On day 0, PBMC were mixed with CAR transposon and SB transposase and electroporated. The following day (day1) cells count and viability were measured followed by flow cytometry to quantify CAR expression. CAR-T cells were stimulated by co-culture with either γ-irradiated) or mitomycin C treated AaPCs. The AaPC cells used were K562 cell line expressing EGFRvIII antigen. EGFRvIII-CAR-T cells were expanded ex vivo by once weekly stimulation with the AaPCs. Cultures were maintained in media supplemented with IL-2 (and/or IL-21. EGFRvIII-specific CAR expression was measured using recombinant EGFRvIII/Fc protein staining as detected by multi-parameter flow cytometry.

binding result | Binder
binds | EGFRvIII CAR (MR1-1 scFv · CD8alpha 3x hinge&TM · 4-1BB · CD3ζ) (receptor, Expressed on human T cells; also called MR1-1 CAR CD8-3×) not shown
binds | EGFRvIII CAR (MR1-1 scFv · CD8alpha 4x hinge&TM · 4-1BB · CD3ζ) (receptor, Expressed on human T cells; also called MR1-1 CAR CD8-4×) not shown
